Measurements: patent US20100240066A1 (MCGILL UNIVERSITY, published 2010)
Where no end group is shown, it is not given here.

T1: E-cadherin/Fc chimeric protein (human, UniProt P12830 155-707)
T1 construct: range 155-707; Bought from R&D Systems; also called E-cad/Fc; human E-cadherin/Fc chimeric protein; not shown: Fc region of human IgG1
T1 sequence (looked up): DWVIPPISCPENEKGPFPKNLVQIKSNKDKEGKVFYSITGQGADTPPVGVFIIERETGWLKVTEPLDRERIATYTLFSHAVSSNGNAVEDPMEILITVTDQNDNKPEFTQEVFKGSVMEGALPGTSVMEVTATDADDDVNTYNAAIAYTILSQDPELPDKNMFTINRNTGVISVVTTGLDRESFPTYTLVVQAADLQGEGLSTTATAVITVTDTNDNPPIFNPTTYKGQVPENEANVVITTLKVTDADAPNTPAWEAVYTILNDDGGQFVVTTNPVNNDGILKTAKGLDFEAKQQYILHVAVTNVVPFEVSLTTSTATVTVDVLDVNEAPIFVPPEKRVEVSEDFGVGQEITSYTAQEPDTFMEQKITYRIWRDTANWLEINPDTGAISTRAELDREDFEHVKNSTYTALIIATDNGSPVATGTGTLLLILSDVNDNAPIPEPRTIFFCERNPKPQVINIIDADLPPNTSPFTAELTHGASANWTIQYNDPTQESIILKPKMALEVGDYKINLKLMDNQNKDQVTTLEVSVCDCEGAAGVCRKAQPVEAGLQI

T2: VE-cadherin/Fc chimeric protein (UniProt P33151 48-593)
T2 construct: Bought from R&D Systems; also called vascular endothelial (VE)-cadherin/Fc chimeric protein; not shown: Fc part not described
T2 sequence (looked up): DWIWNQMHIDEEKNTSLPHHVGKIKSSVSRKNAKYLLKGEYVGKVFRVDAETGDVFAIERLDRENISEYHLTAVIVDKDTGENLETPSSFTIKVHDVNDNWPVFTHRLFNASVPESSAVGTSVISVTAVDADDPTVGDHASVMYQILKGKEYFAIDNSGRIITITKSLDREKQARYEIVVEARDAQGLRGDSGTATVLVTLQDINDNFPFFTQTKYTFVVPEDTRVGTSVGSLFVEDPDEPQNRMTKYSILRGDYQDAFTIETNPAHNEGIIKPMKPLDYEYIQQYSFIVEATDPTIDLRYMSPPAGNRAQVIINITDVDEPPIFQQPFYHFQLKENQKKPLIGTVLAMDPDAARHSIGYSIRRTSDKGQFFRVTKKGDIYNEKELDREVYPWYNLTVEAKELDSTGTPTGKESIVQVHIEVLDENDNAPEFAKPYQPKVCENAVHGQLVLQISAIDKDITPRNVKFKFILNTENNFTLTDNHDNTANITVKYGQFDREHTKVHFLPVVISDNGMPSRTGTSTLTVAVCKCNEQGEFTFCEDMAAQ

T3: N-cadherin/Fc chimeric protein (human, UniProt P19022 160-724)
T3 construct: range 160-724; Bought from R&D Systems; also called N-cad/Fc; human N-cadherin/Fc chimeric protein; not shown: Fc region of human IgG1
T3 sequence (looked up): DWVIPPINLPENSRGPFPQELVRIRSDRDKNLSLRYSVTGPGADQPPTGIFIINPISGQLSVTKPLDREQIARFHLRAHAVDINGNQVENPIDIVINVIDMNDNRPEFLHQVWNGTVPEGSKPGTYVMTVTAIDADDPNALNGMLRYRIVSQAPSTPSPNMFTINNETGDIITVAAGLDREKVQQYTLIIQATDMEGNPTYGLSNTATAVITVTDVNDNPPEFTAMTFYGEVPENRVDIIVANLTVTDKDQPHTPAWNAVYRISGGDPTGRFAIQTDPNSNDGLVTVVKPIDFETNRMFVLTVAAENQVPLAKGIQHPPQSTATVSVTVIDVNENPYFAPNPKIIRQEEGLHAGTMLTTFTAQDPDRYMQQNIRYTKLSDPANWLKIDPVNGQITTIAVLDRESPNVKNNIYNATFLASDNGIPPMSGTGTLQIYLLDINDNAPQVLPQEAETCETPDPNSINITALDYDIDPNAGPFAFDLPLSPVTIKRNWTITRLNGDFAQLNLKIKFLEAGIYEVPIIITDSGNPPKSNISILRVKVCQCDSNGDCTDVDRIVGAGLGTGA


Key:
[1] = biological target: T1, E-cadherin/Fc chimeric protein; assay: phage ELISA
Protocol: (§1) The phage clones shown to bind to the N-cadherin/Fc chimeric protein by ELISA were also evaluated for their ability to bind to E-cadherin/Fc and VE-cadherin/Fc chimeric proteins. The phage clones shown to bind to the E-cadherin/Fc chimeric protein by ELISA were also evaluated for their ability to bind to N-cadherin/Fc and VE-cadherin/Fc chimeric proteins. The same ELISA protocol described in the previous section was used to perform this evaluation with the exception that the wells were coated with either 100 ng N-cadherin/Fc, E-cadherin/Fc or VE-cadherin/Fc chimeric protein (R&D Systems, Minneapolis, Minn.).

[2] = biological target: T2, VE-cadherin/Fc chimeric protein; assay: phage ELISA
Protocol: as §1

[3] = biological target: T3, N-cadherin/Fc chimeric protein; assay: phage ELISA, 1.2 mM calcium
Protocol: (§2) The binding of each clone to the cadherin/Fc chimeric proteins was confirmed by ELISA. Wells of ProBind microtiter plates (Falcon) were coated with either N-cadherin/Fc or E-cadherin/Fc chimeric protein (100 ng/well) or human IgG1 (which contains the Fc fragment) (100 ng/well). After blocking the nonspecific sites with TBS containing 3% BSA and 1.2 mM CaCl₂ for 1 h at 37° C., phage clones (10⁹ pfu) diluted in TBST containing 3% BSA and 1.2 mM CaCl₂ (100 μl/well). Non-coated wells were also used to exclude any phage that bound to the plastic surface. After 1 h incubation at room temperature, wells were washed 3 times with TBST containing 3% BSA and 1.2 mM CaCl₂. M13 phage without any insert were used to control the non-specific binding of the phage itself to the target. Monoclonal anti-M13 antibody conjugated to horseradish peroxidase (Amersham Biosciences, Piscataway, N.J.) was diluted in TBST containing 3% BSA and 1.2 mM CaCl₂ (1:2,000) and added to each well (100 μl/well). After 1 h incubation at room temperature, wells were washed three times with TBST containing 3% BSA and 1.2 mM CaCl₂ and once with TBS containing 1.2 mM CaCl₂. Horseradish peroxidase substrate, TMB (Sigma), was added to each well (100 μl/well and after color development the reaction was stopped by addition of 100 μl 0.5 M sulphuric acid to each well. The intensity of the color was measured at 450 nm.
An ELISA was performed in the presence of either 1.2 mM calcium or 2 mM EDTA. […] The signal obtained in the presence of EDTA was lower than in the presence of calcium.

[4] = biological target: T3, N-cadherin/Fc chimeric protein; assay: summary table, column Peptide Binds to N-cad/Fc; assay not named
[5] = biological target: T2, VE-cadherin/Fc chimeric protein; assay: surface plasmon resonance (Biacore), chimera captured by anti-human IgG
Protocol: The binding of representative peptide modulating agents to either N- or VE-cadherin/Fc chimeric proteins was assessed using a BIAcore X™ Biosensor (Pharmacia Ltd., Sweden). Goat anti-human IgG recognizing N- and VE-cadherin/Fc chimeric proteins (R&D Systems, Minneapolis, Minn.) was immobilized on a CM5 sensor chip (Biacore S51) using standard amine-coupling method at 25° C. HBS-P buffer (10 mM HEPES, 0.15 M NaCl, 0.005% p20, pH 7.4) was used as the running buffer. The carboxymethyl dextran surface was activated with a 7 min injection of a 1:1 ratio of 0.4 M EDC and 0.1 M NHS. The goat anti-human IgG (Caltag Lab.) was coupled to the surface with a 7 min injection diluted in 10 mM sodium acetate, pH 5.0 to a final concentration 80 ug/ml. Remaining activated groups were blocked with a 7 min injection of 1 M ethanolamine, pH 8.5. N- and VE-cadherin/Fc chimeric proteins were dissolved in buffer containing 50 mM Tris HCl, 150 mM NaCl, and 1.2 mM CaCl₂ pH 7.5 to a concentration of 0.2 μM and captured on spots 1 and 2 at a flow rate of 30 μl/min for 30 min with resulting density 927 RU for N-cadherin/Fc chimeric protein and 1008 RU for VE-cadherin/Fc chimeric protein. […]
(§3) The binding of the linear peptide H-[…]-NH₂ (SEQ ID NO: 16) to N- and VE-cadherin/Fc chimeric proteins was analyzed by surface plasma resonance.

[6] = biological target: T1, E-cadherin/Fc chimeric protein; assay: summary table, column Peptide Binds to E-cad/Fc; assay not named
[7] = biological target: T3, N-cadherin/Fc chimeric protein; assay: surface plasmon resonance (Biacore), N-cadherin/Fc captured by anti-human IgG, peptide as analyte, 1.2 mM CaCl2, 25 C
Protocol: The binding of representative peptide modulating agents to either N- or VE-cadherin/Fc chimeric proteins was assessed using a BIAcore X™ Biosensor (Pharmacia Ltd., Sweden). Goat anti-human IgG recognizing N- and VE-cadherin/Fc chimeric proteins (R&D Systems, Minneapolis, Minn.) was immobilized on a CM5 sensor chip (Biacore S51) using standard amine-coupling method at 25° C. HBS-P buffer (10 mM HEPES, 0.15 M NaCl, 0.005% p20, pH 7.4) was used as the running buffer. The carboxymethyl dextran surface was activated with a 7 min injection of a 1:1 ratio of 0.4 M EDC and 0.1 M NHS. The goat anti-human IgG (Caltag Lab.) was coupled to the surface with a 7 min injection diluted in 10 mM sodium acetate, pH 5.0 to a final concentration 80 ug/ml. Remaining activated groups were blocked with a 7 min injection of 1 M ethanolamine, pH 8.5. N- and VE-cadherin/Fc chimeric proteins were dissolved in buffer containing 50 mM Tris HCl, 150 mM NaCl, and 1.2 mM CaCl₂ pH 7.5 to a concentration of 0.2 μM and captured on spots 1 and 2 at a flow rate of 30 μl/min for 30 min with resulting density 927 RU for N-cadherin/Fc chimeric protein and 1008 RU for VE-cadherin/Fc chimeric protein.
The linear peptide H-[…]-NH₂ (SEQ ID NO: 16) and the control linear peptide H-[…]-NH₂ (SEQ ID NO: 58) were passed over surfaces coated with captured N- and VE-cadherin/Fc chimeric proteins in running buffer containing 50 mM Tris-HCl, 150 mM NaCl, and 1.2 mM CaCl₂, pH 7.5 at concentrations ranging from 100-1.56 uM. The experiment was performed at a flow rate 90 ul/min at 25° C. […] All responses were referenced for reference surface and blank injections of running buffer.
as §3

[8] = biological target: T3, N-cadherin/Fc chimeric protein; assay: phage ELISA, 1.2 mM calcium; remark: listed apart in the source
Protocol: as §2

[9] = biological target: T1, E-cadherin/Fc chimeric protein; assay: phage ELISA, in the absence or presence of calcium
Protocol: as §1

[10] = biological target: T2, VE-cadherin/Fc chimeric protein; assay: phage ELISA, in the absence or presence of calcium
Protocol: as §1

Binder | binding result [1] | binding result [2] | binding result [3] | further results
KWELTYFANSFP (whole phage in the assay) [phage clone Nc 12-a3] | no binding (tested: 10^9 pfu) | no binding (tested: 10^9 pfu) | binds | 
AWQVHYSYVASS (whole phage in the assay) [phage clone Nc 12-a7] | binds | no binding (tested: 10^9 pfu) | binds | 
H-SRTLYTPSGQSK-NH2 [H-SRTLYTPSGQSK-NH2] |  |  |  | binding result [4]: no binding; binding result [5]: no binding (tested: 100-1.56 uM)
NWFIDFPVYPPL (whole phage in the assay) [phage clone Nc 12-a1] | no binding (tested: 10^9 pfu) | no binding (tested: 10^9 pfu) | binds | 
H-SWTLYTPSGQSK-NH2 (Synthetic linear peptide) [H-SWTLYTPSGQSK-NH2] |  |  |  | binding result [6]: no binding; binding result [5]: no binding (tested: 100-1.56 uM); Kd [7]: 66 µM; koff [7]: 0.407 s⁻¹; kon [7]: 6100 M⁻¹ s⁻¹
SWLAVWPATGAS (whole phage in the assay) [phage clone Nc 12-a10] | binds | no binding (tested: 10^9 pfu) | binds | 
WYVCVGAHC (not fully specified; cysteine pairing not given here; also: displayed on M13 phage pIII, whole phage in the assay) [phage clone NoCa1] |  |  |  | binding result [8]: binds; binding result [9]: no binding (tested: 10^9 pfu); binding result [10]: no binding (tested: 10^9 pfu)
WQVCVGAHC (not fully specified; cysteine pairing not given here; also: displayed on M13 phage pIII, whole phage in the assay) [phage clone NoCa11] |  |  |  | binding result [8]: binds; binding result [9]: no binding (tested: 10^9 pfu); binding result [10]: no binding (tested: 10^9 pfu)
EWMIHYDSALTS (not fully specified, whole phage in the assay) [phage clone Nc 12-a6] | binds | no binding (tested: 10^9 pfu) | binds | 
